# In article PMC8211771:
# B1: BT2857 (Bacteroides thetaiotaomicron VPI-5482) (protein)
# chain: CAEDMVKPIENDKDAPGTVQDVKTESLPGAVKFTYTLPSDPDLLYVLAKYTNKTGKVMEFRSSFYTNSVTVEGFGDTDTYKVELYTVDRSENRSQPQIVEVVPLTPPILSCYESLSMVSDFGGMTFEMDNKFKSDLAIYVCTPDELGDMVLAETFYSAREEIVYSVRGYDAVPRRFGIFLQDKYGNETDTLFTELTPIYERELDKTKFREMYLQNDSRVDSYDGKMEYVWNGRISKDGDSGGVGLHTGTGTKDGPAVFTFDLGVLAKLSRFALWAIQDEKHFYNDMSPRRYEVWGCATEPNPDGSWDQWVKLLDMENVKPSGSPIGILTEDDIEAAKIGDQANVPLDMPRVRYIRIKCLKNWSNNYNICFTELTFWGNDNEE
# B2: BT2857N (Bacteroides thetaiotaomicron VPI-5482) (protein)
# chain: CAEDMVKPIENDKDAPGTVQDVKTESLPGAVKFTYTLPSDPDLLYVLAKYTNKTGKVMEFRSSFYTNSVTVEGFGDTDTYKVELYTVDRSENRSQPQIVEVVPLTPPILSCYESLSMVSDFGGMTFEMDNKFKSDLAIYVCTPDELGDMVLAETFYSAREEIVYSVRGYDAVPRRFGIFLQDKYGNETDTLFTELTPIYERELDKT
# B3: BT2857C (Bacteroides thetaiotaomicron VPI-5482) (protein)
# chain: ELDKTKFREMYLQNDSRVDSYDGKMEYVWNGRISKDGDSGGVGLHTGTGTKDGPAVFTFDLGVLAKLSRFALWAIQDEKHFYNDMSPRRYEVWGCATEPNPDGSWDQWVKLLDMENVKPSGSPIGILTEDDIEAAKIGDQANVPLDMPRVRYIRIKCLKNWSNNYNICFTELTFWGND
# B4: BT3158 (Bacteroides thetaiotaomicron VPI-5482) (protein)
# chain: CEDVETHKPYGDGSGHAPGTVQVTSYEQIPGGVTLKFIAPTDEDLLYIKIKYTLDNGKEMEARASLYTDETTIEGFGNTNPKKLVISAVNKMEKEGEAIITEIVPGKPAYLTAIEEIEVNPTFGGIYIHTTNGGRNYLIFDVSTKDSKGNWNIEHTEYTSVKNIGFTLRGFSAEPHDFKVRVRDLYDNQSEEYLTTLTPLYEEKLDLTKFKTFYLANDIKMDNAGHTLESLFNGDHGLNSWNYAHGYDFNPSEFPVWFTFDMGQTAQLSRFTSWQRSMGGSYYYRAGAIKEWEVWGRSDLPSSDGSWDGWTKLADCESIKPSGWPTGSNSEEDITYASKGEEFEFLADIPPVRYIRFKILSTHDGAGLVVMQQLWFYGTPIQ
# Substrate: O=[N+]([O-])c1ccc(O[C@@H]2O[C@H](CO)[C@H](O)[C@H](O)[C@H]2O)cc1
# Assay: purified protein
# Settings: 100 mM phosphate-based buffer, 5 μM protein
# [1] = pH 8.0, 20 °C (room temperature), Figure 6 legend gives 0.13 mM (±0.010), pH 8.0
# [2] = pH 8.0, 20 °C (room temperature), Figure 6 legend gives 0.07 mM (±0.012), pH 8.0
# [3] = pH 8.0, 20 °C (room temperature), Figure 6 legend gives 0.047 mM (±0.005), pH 8.0
# [4] = pH 8.4, 20 °C (room temperature), Figure 6 legend gives 0.052 mM (±0.007), pH 8.4
protein,measurement,setting,value
B1,kcat,[1],0.046 s⁻¹
same,kcat/Km,[1],354 M⁻¹ s⁻¹
B2,kcat,[2],0.046 s⁻¹
same,kcat/Km,[2],657 M⁻¹ s⁻¹
B3,kcat,[3],0.011 s⁻¹
same,kcat/Km,[3],234 M⁻¹ s⁻¹
B4,kcat,[4],1.21 s⁻¹
same,kcat/Km,[4],23300 M⁻¹ s⁻¹
